Measured values taken from patent US20260209311A1, “MODIFIED G PROTEIN COUPLED RECEPTOR AND USE THEREOF” (ALPHELIX BIOTECH CO., LTD., priority 2023, published 2026).

Biological target: T1, modified GPR75 (GPR75-GFP10-11 modified protein complex) (Homo sapiens, UniProt O95800, A308G/DEL234-307/I309H/INS313[…]/N310Y)
T1 construct: obesity-related receptor GPR75 (1-395); signal peptide (N); made in house; The clamp protein is made in E. coli Rosetta 2 (DE3), as described for GFP-clamp
Test: SPR determination of affinity of purified modified GPR75 to CCL5 ligand
Type: binding
Details: Biacore 8K, Series S Sensor SA chip, pH 7.4; values only in FIG. 79 C
Method: The purification and identification method of the modified GPR75 fusion protein refers to Example 4. The difference is that during the purification, GFP-clamp-avi-biotin was added rather than GFP-clamp. The molecular sieve chromatography result graph of the modified fusion protein is seen in A of FIG. 79, and the SDS gel electrophoresis result graph of the modified fusion protein is seen in B of FIG. 79.
The purified GPR75 was used for determination of affinity to CCL5 ligand via surface plasmon resonance (SPR). The used instrument was Biacore 8K, and the chip was Series S Sensor SA Chip:SA-2429. Both a protein immobilization buffer and a running buffer contained 20 mM HEPES, 150 mM NaCl, 0.005% LMNG and 0.0005% CHS, pH 7.4. The affinity determination results are seen in C of FIG. 79.

With “CCL5: CCL5 ligand of the obesity-related receptor GPR75” the “affinity (SPR)” value was “close to reported results”.
